The values that follow come from patent publication US20160039884A1.

Some targets named below: integrin receptors; α5 integrin subunit (UniProt P08648); αv integrin (UniProt P06756); α5β1 integrin (UniProt P08648).
Holding throughout (assay): cell-based or functional assay

Sequence of UniProt P06756 (P06756 31-1048 limits assumed): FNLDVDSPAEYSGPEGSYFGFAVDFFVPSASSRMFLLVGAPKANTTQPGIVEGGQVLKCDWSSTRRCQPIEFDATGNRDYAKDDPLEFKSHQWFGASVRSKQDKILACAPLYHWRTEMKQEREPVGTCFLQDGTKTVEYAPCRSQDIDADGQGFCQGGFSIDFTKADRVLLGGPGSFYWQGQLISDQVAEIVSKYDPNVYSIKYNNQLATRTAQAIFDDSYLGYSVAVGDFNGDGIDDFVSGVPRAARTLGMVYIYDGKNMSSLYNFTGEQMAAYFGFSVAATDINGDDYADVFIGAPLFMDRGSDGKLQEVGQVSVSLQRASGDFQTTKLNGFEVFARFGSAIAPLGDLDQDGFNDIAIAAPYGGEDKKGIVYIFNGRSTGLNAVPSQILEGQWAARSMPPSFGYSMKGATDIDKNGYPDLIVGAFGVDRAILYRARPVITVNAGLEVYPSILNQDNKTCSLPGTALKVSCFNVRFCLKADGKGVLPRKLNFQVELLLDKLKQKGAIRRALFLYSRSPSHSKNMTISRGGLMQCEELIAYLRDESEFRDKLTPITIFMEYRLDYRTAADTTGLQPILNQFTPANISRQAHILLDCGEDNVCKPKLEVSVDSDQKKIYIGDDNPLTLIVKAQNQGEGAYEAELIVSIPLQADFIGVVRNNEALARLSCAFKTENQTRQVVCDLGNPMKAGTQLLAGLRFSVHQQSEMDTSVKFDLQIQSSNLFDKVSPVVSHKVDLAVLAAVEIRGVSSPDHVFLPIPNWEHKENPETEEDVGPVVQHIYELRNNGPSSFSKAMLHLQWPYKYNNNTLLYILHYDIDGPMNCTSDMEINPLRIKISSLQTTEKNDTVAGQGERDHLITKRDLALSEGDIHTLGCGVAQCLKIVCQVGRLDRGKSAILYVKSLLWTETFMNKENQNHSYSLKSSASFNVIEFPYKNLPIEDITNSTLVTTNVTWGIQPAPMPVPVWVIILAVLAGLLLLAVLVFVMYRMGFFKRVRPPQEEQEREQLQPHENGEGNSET

hMPV F protein mutant G330A gave a Fusion (content mixing fusion assay, percent of wild type F) in the experiment with integrin receptors of 20%. Still for that read-out and setting: the value for hMPV F protein mutant R329D was 13%; that for hMPV F protein mutant D331R was 107%; that for hMPV F protein mutant D331A was 58%.

The substance hMPV F protein mutant D331E showed a Fusion (content mixing fusion assay, percent of wild type F) with integrin receptors of 118%. In the experiment with integrin receptors, hMPV F protein mutant R329K returned a Fusion (content mixing fusion assay, percent of wild type F) of 72%.

Take “hMPV F protein (wild type, strain NL/1/00), expressed from pCAGGS-F”: the Fusion (content mixing fusion assay, percent of wild type F) with integrin receptors is 100%. Moreover, in the experiment with α5 integrin subunit, the reduction of fusion activity (syncytium count) after siRNA knockdown of α5 is 80%. Besides, in the experiment with αv integrin, the inhibition of cell-cell fusion (content-mixing fusion assay) by anti-αv antibody amounted to 80% and the reduction of fusion activity (syncytium count) after siRNA knockdown of αv amounted to 60%. The substance further displayed an inhibition of cell-cell fusion (content-mixing fusion assay) by anti-α5β1 antibody in the experiment with α5β1 integrin of 80%.

hMPV F protein mutant G330S returned a Fusion (content mixing fusion assay, percent of wild type F) with integrin receptors of 9%.

In the experiment with integrin receptors, hMPV F protein mutant R329A gave a Fusion (content mixing fusion assay, percent of wild type F) of 13%.
